{
  "source": "patent US20240398973A1",
  "about": "“ENGINEERED ANTIBODY COMPOUNDS AND CONJUGATES THEREOF” (Eli Lilly and Company, priority 2017, published 2024)",
  "key": {"[1]": {"molecular_target": "formyl peptide receptor 1 (FPR1) on primary human polymorphonuclear neutrophils (human) (UniProt P21462)", "assay": "cell-based or functional assay"}, "[2]": {"molecular_target": "formyl peptide receptor 1 (FPR1) on primary human polymorphonuclear neutrophils (human) (UniProt P21462)", "assay": "cell-based or functional assay", "remark": "listed apart in the source"}, "[3]": {"tested_on": "primary human polymorphonuclear neutrophil (PMN)", "assay": "PMN chemotaxis (transwell, modified Boyden chamber)", "type": "cell-based", "settings": "for Relative Migration (PMN migration): relative to 10 nM fMLF (Table 4a)", "description": "Chemotaxis is measured by observing primary human polymorphonuclear neutrophil (PMN) migration across transwell membranes (Corning #3415) towards antibody conjugates in a modified Boyden chamber assay. Approximately 2-4×10^5 cells from neutrophil-enriched preparations are seeded in upper transwell chambers on membranes with 3.0 um pores. The lower transwell chambers contain solutions of buffer alone and fMLF (N-formyl-Met-Leu-Phe peptide as positive control) and experimental antibody bioconjugates. […] Cell numbers are determined using standard curves. All data are transformed to percent relative to the maximal fMLF response for each individual experiment."}, "human primary PMNs": {"tested_on": "human primary PMNs", "assay": "PMN reactive oxygen species (ROS) production, luminol-amplified chemiluminescence", "type": "cell-based", "settings": "relative to 10 uM fMLF, AUC 5 minutes (Table 8a)", "experimental": "Production of ROS by human primary PMNs is measured using luminol-amplified chemiluminescence. Following isolation, PMNs are suspended at 1×10^6 cells/ml in HBSS containing calcium and magnesium (Gibco #14025-092) supplemented with 0.25% human serum albumin (Gemini Bio producst #800-124) and 50 uM Luminol (SigmaAldrich #123072-2.5G). 100 μl of cell suspension (1×10^5 total cells) is then distributed into each well of a 96-well plate suitable for fluorescence measurement (Greiner #655098) and temperature equilibrated to 37° C. for 5 minutes. Following equilibration, 10× solution of antibody conjugate is applied to the wells, achieving a 1× final concentration.\nImmediately after the addition of antibody conjugate, chemiluminescence signal is recorded in a luminometer maintained at 37° C. with 0.01 seconds dwell time per well, 20 seconds total time between sequential plate readings and 45 minutes total run time (PerkinElmer EnVision Multilabel Plate Reader)."}},
  "note": "Where two headings read alike, the source gives them in different places. Where no end group is shown, it is not given here.",
  "data": [
    {"substance": "Tmab-G1-fMIFL-HC124C-378C-(PEG6) (antibody)", "values": [
      {"measurement": "EC50 of PMN ROS production", "setting": "[1]", "value": 13.6, "unit": "nM"}
    ]},
    {"substance": "Emibetuzumab-G4(PAA)-fMLFK-HC-378C (antibody)", "values": [
      {"measurement": "PMN ROS production at 1 nM (percent relative to 1000 nM fMLF)", "setting": "[1]", "value": 25.8, "unit": "%"},
      {"measurement": "PMN ROS production at 2 nM (percent relative to 1000 nM fMLF)", "setting": "[1]", "value": 27.7, "unit": "%"},
      {"measurement": "PMN ROS production at 3.9 nM (percent relative to 1000 nM fMLF)", "setting": "[1]", "value": 28.2, "unit": "%"},
      {"measurement": "PMN ROS production at 7.8 nM (percent relative to 1000 nM fMLF)", "setting": "[1]", "value": 27.3, "unit": "%"},
      {"measurement": "PMN ROS production at 15.6 nM (percent relative to 1000 nM fMLF)", "setting": "[1]", "value": 29.6, "unit": "%"},
      {"measurement": "PMN ROS production at 31.3 nM (percent relative to 1000 nM fMLF)", "setting": "[1]", "value": 24.5, "unit": "%"},
      {"measurement": "PMN ROS production at 62.5 nM (percent relative to 1000 nM fMLF)", "setting": "[1]", "value": 23.4, "unit": "%"},
      {"measurement": "PMN ROS production at 125 nM (percent relative to 1000 nM fMLF)", "setting": "[1]", "value": 23.5, "unit": "%"},
      {"measurement": "PMN ROS production at 250 nM (percent relative to 1000 nM fMLF)", "setting": "[1]", "value": 23.9, "unit": "%"},
      {"measurement": "PMN ROS production at 500 nM (percent relative to 1000 nM fMLF)", "setting": "[1]", "value": 38.3, "unit": "%"},
      {"measurement": "PMN ROS production at 1000 nM (percent relative to 1000 nM fMLF)", "setting": "[1]", "value": 48.9, "unit": "%"},
      {"measurement": "PMN ROS production at 1 nM (percent relative to 1000 nM fMLF)", "setting": "[2]", "value": 0.9, "unit": "%"},
      {"measurement": "PMN ROS production at 3 nM (percent relative to 1000 nM fMLF)", "setting": "[2]", "value": 1.8, "unit": "%"},
      {"measurement": "PMN ROS production at 12 nM (percent relative to 1000 nM fMLF)", "setting": "[2]", "value": 0.9, "unit": "%"},
      {"measurement": "PMN ROS production at 30 nM (percent relative to 1000 nM fMLF)", "setting": "[2]", "value": 1.2, "unit": "%"},
      {"measurement": "PMN ROS production at 100 nM (percent relative to 1000 nM fMLF)", "setting": "[2]", "value": 1, "unit": "%"},
      {"measurement": "PMN ROS production at 300 nM (percent relative to 1000 nM fMLF)", "setting": "[2]", "value": 2.4, "unit": "%"},
      {"measurement": "PMN ROS production at 1000 nM (percent relative to 1000 nM fMLF)", "setting": "[2]", "value": 2.8, "unit": "%"}
    ]},
    {"substance": "Tmab-G1-fMIFL-HC124C-378C-(PEG3) (antibody)", "values": [
      {"measurement": "EC50 of PMN ROS production", "setting": "[1]", "value": 31.3, "unit": "nM"}
    ]},
    {"substance": "H-Met-Leu-Phe-Lys (Mal-PEG12-OH (H-MLFK; not fully specified (residue 4)) [Peptide-'844]", "values": [
      {"measurement": "concentration at which PMN migration is maximally induced", "setting": "[3]", "value": 1, "unit": "µM"},
      {"measurement": "Relative Migration (PMN migration)", "setting": "[3]; 1 pM", "value": 1.4, "unit": "%"},
      {"measurement": "Relative Migration (PMN migration)", "setting": "[3]; 10 pM", "value": 4.1, "unit": "%"},
      {"measurement": "Relative Migration (PMN migration)", "setting": "[3]; 100 pM", "value": 0.4, "unit": "%"},
      {"measurement": "Relative Migration (PMN migration)", "setting": "[3]; 1 nM", "value": 11.1, "unit": "%"},
      {"measurement": "Relative Migration (PMN migration)", "setting": "[3]; 10 nM", "value": 2.9, "unit": "%"},
      {"measurement": "Relative Migration (PMN migration)", "setting": "[3]; 100 nM", "value": 20.4, "unit": "%"},
      {"measurement": "Relative Migration (PMN migration)", "setting": "[3]; 1 uM", "value": 114.2, "unit": "%"},
      {"measurement": "Relative Migration (PMN migration)", "setting": "[3]; 10 uM", "value": 110.4, "unit": "%"},
      {"measurement": "fold less potent at inducing PMN migration than Peptide-'183", "setting": "[3]; dose response differences", "value": 1000, "unit": "fold"},
      {"measurement": "ROS Production by PMNs", "setting": "human primary PMNs; 1 pM", "value": 7.4, "unit": "percentage"},
      {"measurement": "ROS Production by PMNs", "setting": "human primary PMNs; 10 pM", "value": 7.5, "unit": "percentage"},
      {"measurement": "ROS Production by PMNs", "setting": "human primary PMNs; 100 pM", "value": 7.5, "unit": "percentage"},
      {"measurement": "ROS Production by PMNs", "setting": "human primary PMNs; 1 nM", "value": 8.4, "unit": "percentage"},
      {"measurement": "ROS Production by PMNs", "setting": "human primary PMNs; 10 nM", "value": 7.8, "unit": "percentage"},
      {"measurement": "ROS Production by PMNs", "setting": "human primary PMNs; 100 nM", "value": 8.2, "unit": "percentage"},
      {"measurement": "ROS Production by PMNs", "setting": "human primary PMNs; 1 μM", "value": 8.7, "unit": "percentage"},
      {"measurement": "ROS Production by PMNs", "setting": "human primary PMNs; 10 μM", "value": 23.5, "unit": "percentage"}
    ]},
    {"substance": "Emibetuzumab-G4(PAA)-fMLFK-HC-124C-162C-378C (antibody)", "values": [
      {"measurement": "PMN ROS production at 1 nM (percent relative to 1000 nM fMLF)", "setting": "[2]", "value": 1.2, "unit": "%"},
      {"measurement": "PMN ROS production at 3 nM (percent relative to 1000 nM fMLF)", "setting": "[2]", "value": 6.1, "unit": "%"},
      {"measurement": "PMN ROS production at 12 nM (percent relative to 1000 nM fMLF)", "setting": "[2]", "value": 17.8, "unit": "%"},
      {"measurement": "PMN ROS production at 30 nM (percent relative to 1000 nM fMLF)", "setting": "[2]", "value": 38.4, "unit": "%"},
      {"measurement": "PMN ROS production at 100 nM (percent relative to 1000 nM fMLF)", "setting": "[2]", "value": 52.7, "unit": "%"},
      {"measurement": "PMN ROS production at 300 nM (percent relative to 1000 nM fMLF)", "setting": "[2]", "value": 54.2, "unit": "%"},
      {"measurement": "PMN ROS production at 1000 nM (percent relative to 1000 nM fMLF)", "setting": "[2]", "value": 42.3, "unit": "%"}
    ]}
  ]
}
